4 molecules from patent US20220135701A1 (Genentech, published 2022) can be followed below.

Like-named read-outs stand apart in the source and are kept apart here.

The target in experiment [1] is T1, mouse MerTK on mouse macrophages (mouse, UniProt Q60805 19-994).
T1 sequence (looked up): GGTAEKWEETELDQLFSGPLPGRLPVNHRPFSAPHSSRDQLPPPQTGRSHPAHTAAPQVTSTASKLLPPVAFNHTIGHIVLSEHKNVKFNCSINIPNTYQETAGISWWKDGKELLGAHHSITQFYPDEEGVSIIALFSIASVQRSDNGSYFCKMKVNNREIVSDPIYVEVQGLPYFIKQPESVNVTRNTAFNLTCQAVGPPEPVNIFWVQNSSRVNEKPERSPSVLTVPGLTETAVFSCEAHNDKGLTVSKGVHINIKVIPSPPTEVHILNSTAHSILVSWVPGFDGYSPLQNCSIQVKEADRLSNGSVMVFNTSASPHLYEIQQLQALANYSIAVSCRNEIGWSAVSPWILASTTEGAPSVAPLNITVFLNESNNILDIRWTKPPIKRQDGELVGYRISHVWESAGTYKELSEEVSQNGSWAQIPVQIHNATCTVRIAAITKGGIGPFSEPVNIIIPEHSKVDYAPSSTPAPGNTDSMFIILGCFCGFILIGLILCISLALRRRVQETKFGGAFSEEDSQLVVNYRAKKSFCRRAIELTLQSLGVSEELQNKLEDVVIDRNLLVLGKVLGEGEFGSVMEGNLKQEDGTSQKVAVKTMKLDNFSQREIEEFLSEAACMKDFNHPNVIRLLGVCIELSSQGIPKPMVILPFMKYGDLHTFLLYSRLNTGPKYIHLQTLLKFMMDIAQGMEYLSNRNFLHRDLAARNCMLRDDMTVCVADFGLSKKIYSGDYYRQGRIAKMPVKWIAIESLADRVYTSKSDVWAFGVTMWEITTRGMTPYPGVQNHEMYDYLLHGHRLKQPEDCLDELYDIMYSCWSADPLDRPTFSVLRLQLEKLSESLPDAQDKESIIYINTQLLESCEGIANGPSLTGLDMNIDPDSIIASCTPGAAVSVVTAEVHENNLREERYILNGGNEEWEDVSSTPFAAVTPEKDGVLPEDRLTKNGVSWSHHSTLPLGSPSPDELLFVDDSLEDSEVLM
In words: cell-based or functional assay.

Experiment [2] has as its target T1, mouse MerTK on mouse macrophages. As to the kind of experiment: cell-based or functional assay. The source holds these as a separate data set.
In experiment [3] the target is T2, rat MerTK (rat, UniProt P57097 23-496, limits assumed).
T2 construct: Soluble analyte in SPR
T2 sequence (looked up): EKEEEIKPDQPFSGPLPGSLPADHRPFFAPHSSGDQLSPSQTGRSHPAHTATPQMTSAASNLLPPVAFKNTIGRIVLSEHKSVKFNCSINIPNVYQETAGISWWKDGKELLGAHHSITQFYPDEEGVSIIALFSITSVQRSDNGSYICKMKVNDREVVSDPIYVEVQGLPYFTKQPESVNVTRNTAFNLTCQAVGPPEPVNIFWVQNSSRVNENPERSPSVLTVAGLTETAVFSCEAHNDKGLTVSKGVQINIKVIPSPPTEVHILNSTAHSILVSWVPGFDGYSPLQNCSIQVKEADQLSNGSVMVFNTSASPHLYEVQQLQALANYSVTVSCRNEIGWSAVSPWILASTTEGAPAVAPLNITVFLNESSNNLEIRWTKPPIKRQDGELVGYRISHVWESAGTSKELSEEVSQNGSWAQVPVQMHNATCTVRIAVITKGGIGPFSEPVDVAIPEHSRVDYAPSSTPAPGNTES
In words: SPR BIAcore T200, Ab captured, 37C. In a few lines:
(§1)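 Rabbit or humanized antibody captured to ~100 RU; MerTK injected as 3-fold dilutions from 0.4 nM to 100 nM in HBS-EP (HEPES pH 7.4) at 30 μl/min, at 25° C. or 37° C. kon and koff fitted to a 1:1 Langmuir model; KD = koff/kon.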
(In SPR one partner is held on a chip, and binding of the other changes the refractive index at the surface.)

Experiment [4] concerns the target T3, mouse MerTK (mouse, UniProt Q60805 23-496).
T3 construct: also called MuMER
T3 sequence (looked up): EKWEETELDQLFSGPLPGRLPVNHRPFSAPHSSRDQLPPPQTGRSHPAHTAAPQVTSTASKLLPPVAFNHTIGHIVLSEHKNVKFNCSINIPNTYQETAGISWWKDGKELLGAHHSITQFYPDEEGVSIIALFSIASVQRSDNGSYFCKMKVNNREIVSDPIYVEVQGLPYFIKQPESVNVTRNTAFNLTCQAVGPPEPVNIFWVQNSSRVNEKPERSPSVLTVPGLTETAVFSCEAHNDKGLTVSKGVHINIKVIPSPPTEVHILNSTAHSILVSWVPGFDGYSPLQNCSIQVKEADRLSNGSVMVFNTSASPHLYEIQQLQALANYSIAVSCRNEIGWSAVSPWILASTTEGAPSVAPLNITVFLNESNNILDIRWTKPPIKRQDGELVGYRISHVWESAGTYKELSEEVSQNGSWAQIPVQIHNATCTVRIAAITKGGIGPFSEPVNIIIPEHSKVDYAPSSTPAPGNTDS
In words: SPR BIAcore T200, Ab captured, 37C. The procedure, abridged: as §1

In experiment [5] the target is T4, cynomolgus monkey MerTK (cynomolgus monkey, UniProt A0A2K5V1H9 32-505).
T4 construct: Soluble analyte in SPR; also called Cyno MerTK
T4 sequence: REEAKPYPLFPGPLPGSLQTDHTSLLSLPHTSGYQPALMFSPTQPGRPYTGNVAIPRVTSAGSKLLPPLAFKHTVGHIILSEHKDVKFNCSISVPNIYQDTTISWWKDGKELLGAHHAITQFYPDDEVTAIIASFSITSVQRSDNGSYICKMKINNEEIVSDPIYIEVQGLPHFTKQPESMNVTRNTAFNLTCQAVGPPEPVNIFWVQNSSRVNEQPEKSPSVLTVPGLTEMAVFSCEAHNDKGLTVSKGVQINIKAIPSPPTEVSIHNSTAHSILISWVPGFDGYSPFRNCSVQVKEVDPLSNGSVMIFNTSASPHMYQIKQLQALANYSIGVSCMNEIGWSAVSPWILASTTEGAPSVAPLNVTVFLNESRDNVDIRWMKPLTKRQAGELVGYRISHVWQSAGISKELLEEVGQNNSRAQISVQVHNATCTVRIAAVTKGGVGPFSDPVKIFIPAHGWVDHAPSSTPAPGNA
In words: SPR BIAcore T200, Ab captured, 37C. The procedure, abridged: as §1

Experiment [6] concerns the target T5, human MerTK (human, UniProt Q12866 26-499).
T5 construct: also called HuMER
T5 sequence: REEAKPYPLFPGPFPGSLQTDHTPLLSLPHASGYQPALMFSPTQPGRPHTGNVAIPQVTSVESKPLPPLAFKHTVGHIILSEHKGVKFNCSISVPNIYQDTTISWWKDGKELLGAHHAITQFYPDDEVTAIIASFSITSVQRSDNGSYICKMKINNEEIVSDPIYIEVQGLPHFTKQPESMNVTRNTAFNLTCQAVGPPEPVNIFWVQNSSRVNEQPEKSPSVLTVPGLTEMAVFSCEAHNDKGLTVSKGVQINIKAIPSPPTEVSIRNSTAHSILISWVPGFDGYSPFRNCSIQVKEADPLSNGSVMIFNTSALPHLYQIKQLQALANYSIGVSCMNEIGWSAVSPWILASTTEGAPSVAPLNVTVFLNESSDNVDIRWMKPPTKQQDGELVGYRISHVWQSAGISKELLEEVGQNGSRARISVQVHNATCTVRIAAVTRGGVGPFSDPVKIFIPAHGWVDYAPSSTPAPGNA
In words: SPR BIAcore T200, Ab captured, 37C. The procedure, abridged: as §1

Experiment [7] has as its target T5, human MerTK. As to the kind of experiment: SPR BIAcore T200, Ab captured, 37C. The source holds these as a separate data set.
The target of experiment [8] is T2, rat MerTK. As to the kind of experiment: SPR BIAcore T200, Ab captured, 37C. The protocol:
(§2) All binding affinity determinations were obtained using Surface Plasmon Resonance (SPR) measurements from a BIAcore™-T200 instrument. Briefly, each rabbit or humanized antibody was captured to achieve approximately 100 RU (Response Units). Then, 3-fold serial dilutions of MerTK from various species (0.4 nM to 100 nM) diluted in HBS-EP buffer (0.01M HEPES pH 7.4, 0.15M NaCl, 3 mM EDTA and 0.05% v/v surfactant P20) was injected into the BIAcore™-T200 instrument at 25° C. or 37° C. with a flow rate of 30 μl/min. Association rates (kₒₙ) and dissociation rates (koff) were calculated using a simple one-to-one Langmuir binding model (BIAcore T200 evaluation software version 2.0). The equilibrium dissociation constant (KD) was calculated as the ratio koff/kₒₙ.
This is another data set of the same source.

The target of experiment [9] is T3, mouse MerTK. In words: SPR BIAcore T200, Ab captured, 37C. As to the method: as §2
This is another data set of the same source.

The target in experiment [10] is T4, cynomolgus monkey MerTK. As to the kind of experiment: SPR BIAcore T200, Ab captured, 37C. As to the method: as §2
The source holds these as a separate data set.

Experiment [11] deals with T5, human MerTK. As to the kind of experiment: SPR BIAcore T200, Ab captured, 37C. The protocol: as §2
This is another data set of the same source.

Experiment [12] concerns the target T3, mouse MerTK. In words: SPR BIAcore T200, Ab captured, 25C. The procedure, abridged:
as §1

Experiment [13] addresses T4, cynomolgus monkey MerTK. As to the kind of experiment: SPR BIAcore T200, Ab captured, 25C. The procedure, abridged:
as §1

The target of experiment [14] is T5, human MerTK. In words: SPR BIAcore T200, Ab captured, 25C. In a few lines:
as §1

The target in experiment [15] is T6, MuMER (E23-S496) (mouse, UniProt Q60805 23-496).
T6 construct: range 23-496; also called mouse MerTK extracellular domain
T6 sequence (looked up): T3 sequence (looked up)
As to the kind of experiment: SPR BIAcore T200, Ab captured, 25C. In a few lines: (§3)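 Rabbit antibody captured to ~100 RU; MerTK domain injected as 3-fold dilutions (0.4–100 nM) in HBS-EP pH 7.4 at 25 °C, 30 μl/min. kon and koff from 1:1 Langmuir fit; KD = koff/kon.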

Experiment [16] has as its target T7, HuMER (R26-A499) (human, UniProt Q12866 26-499).
T7 construct: Extracellular domain with both Ig-like and both fibronectin-like domains; also called human MerTK extracellular domain
T7 sequence: T5 sequence
As to the kind of experiment: SPR BIAcore T200, Ab captured, 25C. In a few lines: as §3

Experiment [17] concerns the target T4, cynomolgus monkey MerTK. In words: SPR BIAcore T200, Ab captured, 37C. As to the method:
as §2
The source holds these as a separate data set.

The target of experiment [18] is T5, human MerTK. As to the kind of experiment: SPR BIAcore T200, Ab captured, 37C. As to the method: as §2
The source holds these as a separate data set.

B1: anti-MerTK 14C9 (mIgG2a LALAPG) (antibody, V domains shown)
VH: QSVEESGGRLVTPGTPLTLTCTVSGIDLSANTMNWVRQAPGKGLEWIGIFTATGSTYYATWVNGRFTISKTSTTVDLKITSPTTEDTATYFCARSGSGSSSGAFNIWGPGTLVTVSL
VL: DPVLTQTPASVSEPVGGTVTIKCQASQSISSSLAWYQQKPGQPPKLLIYAASILASEISSRFKGSRSGTEFTLTISDLECADAATYYCQCTSYGSLFLGPFGGGTEVVVK
As for B1, in [1], the “IC50 (nM), efferocytosis by mouse macrophages, Average” value is 0.19 nM. In experiment [2], the “fold decrease in phagocytic clearance of apoptotic thymocytes by peritoneal macrophages, against control anti-gp120” value was around 8 fold and the “fold potency in inhibiting mouse macrophage phagocytosis, against h10F7.v16” value was found to be 4.8 fold.

B2: h10C3.v1 (antibody, V domains shown)
VH: EQQLVESGGGLVQPGGSLRLSCAASGFSLSGYTMGWVRQAPGKGLEYIGVISSGGTTYYTNWAKGRFTISKDSSKNTVYLQMGSLRAEDMAVYFCARVAFTAYGGGGFPTLHRLDLWGQGTLVTVSS
VL: DQVLTQSPDSLAVSLGERATINCQSSESVYNNDYLAWYQQKPGQPPKLLIYSASTLASGVPDRFSGSGSGTDFTLTISSLQAEDVAVYYCAGGYLGNNVFGGGTKVEIK
notes: also called h10C3.V1 (Parent); 10C3 Humanized mAb V1
For orientation: Kd means the concentration at which binding is half-saturated. With B2, the Kd came to 3.3 nM in experiment [3]; 1 nM in experiment [4]; 5.3 nM in experiment [5]; 11.6 nM in experiment [6]; 13.8 nM in experiment [7]; 3.3 nM in experiment [8]. For the same molecule, the equilibrium dissociation constant (Kd) in [9] was determined as 1.1 nM; in experiment [10], 5.3 nM; in experiment [11], 12.9 nM.

B3: Rbt10C3 (antibody, V domains shown)
VH: QSLEESGGRLVTPGTPLTLTCTASGFSLSGYTMGWVRQAPGKGLEYIGVISSGGTTYYTNWAKGRFTISKTSTTVDLKITSPTTEDTATYFCARVAFTAYGGGGFPTLHRLDLWGQGTLVTVSS
VL: AQVLIQTASSVSAAVGGTVTISCQSSESVYNNDYLAWYQQKPGQPPKLLIYSASTLASGVPSRFKGSGSGTQFTLTISDLECDDAATYYCAGGYLGNNVFGGGTEVVVK
notes: Recombinant rabbit monoclonal antibody, Expi293, protein A purified
As for B3, the Kd in experiment [12] came to 0.7 nM; in [13], 3 nM; in experiment [14], 3.4 nM; in [15], 0.7 nM; in experiment [16], 3.4 nM; in experiment [8] it was 2.4 nM. For the same molecule, the Kd was 0.8 nM in [9], 4.1 nM in experiment [10] and 9.9 nM in [11].

B4: h13B4.v1 (antibody, V domains shown)
VH: EQQLVESGEGLVQPGGSLRLSCAVSGFSLSSYAMGWVRQAPGKGLEWIGIINSYGNTYYANWAKGRFTISRDSSKNTVYLQMGSLRAEDMAVYFCARDPGVSSNLWGPGTLVTVSS
VL: DVQMTQSPSTLSASVGDRVTITCQASQNIYSGLAWYQQKPGKPPKLLIYGASKLASGVPSRFSGSGSGTEFTLTISSLQPDDFATYYCQATYYSSNSVAFGGGTKVEIK
notes: also called h13B4.V1 (Parent); 13B4 Humanized mAb V1
Take B4: the Kd in experiment [5] was 5.6 nM; in experiment [6], 4.8 nM; in experiment [7], 4.8 nM; in [17], 5 nM; in experiment [18] it was 4.3 nM.
